Measured values as given in the supplement of paper PMC9112550, “Optimization of the antimicrobial peptide Bac7 by deep mutational scanning” (BMC Biology, 2022).

Tested on: Escherichia coli TOP10
Test: shrunken log2 fold change of peptide-encoding DNA abundance (4.5 h post-induction vs induction); higher = less antimicrobial activity (less host growth inhibition)
Conditions: time post-induction: 4.5 h; library: site-saturation at positions 5, 18, 19, 20
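Further: peptides expressed intracellularly from a pBAD plasmid library in pooled LB shake-flask culture, induced with 0.3% L-arabinose, DNA abundance read by NGS, three biological replicates, DESeq2 with apeglm shrinkage.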

Row | Sequence | shrunken log2 fold change
1 | RRIRLRPPRLPRPRPRPMLGPRP | 0.0421
2 | RRIRLRPPRLPRPRPRPMHYPRP | -0.094
3 | RRIRKRPPRLPRPRPRPIIMPRP | -0.419
4 | RRIRFRPPRLPRPRPRPPQSPRP | 0.334
5 | RRIRTRPPRLPRPRPRPSCGPRP | -0.0561
6 | RRIRRRPPRLPRPRPRPLFEPRP | 0.245
7 | RRIRKRPPRLPRPRPRPIVFPRP | -0.0542
8 | RRIRCRPPRLPRPRPRPRFIPRP | -0.171
9 | RRIRNRPPRLPRPRPRPRMYPRP | -0.613
10 | RRIRNRPPRLPRPRPRPPPLPRP | 0.732
11 | RRIRLRPPRLPRPRPRPAYIPRP | -0.098
12 | RRIRHRPPRLPRPRPRPYQRPRP | 0.0916
13 | RRIRGRPPRLPRPRPRPDFWPRP | 0.593
14 | RRIRPRPPRLPRPRPRPETMPRP | 0.00383
15 | RRIRYRPPRLPRPRPRPVRQPRP | 0.132
16 | RRIRIRPPRLPRPRPRPEYMPRP | -1.14
17 | RRIRTRPPRLPRPRPRPPNSPRP | 0.0134
18 | RRIRCRPPRLPRPRPRPFEHPRP | -0.792
19 | RRIRHRPPRLPRPRPRPPDMPRP | 0.0267
20 | RRIRERPPRLPRPRPRPLQKPRP | -0.113
21 | RRIRMRPPRLPRPRPRPNLYPRP | -0.00588
22 | RRIRARPPRLPRPRPRPDMYPRP | -0.0823

Row | Sequence | shrunken log2 fold change
23 | RRIRQRPPRLPRPRPRPKNDPRP | -0.379
24 | RRIRFRPPRLPRPRPRPAMSPRP | -0.302
25 | RRIRYRPPRLPRPRPRPTMEPRP | 0.0667
26 | RRIRGRPPRLPRPRPRPYKPPRP | -0.571
27 | RRIRMRPPRLPRPRPRPPETPRP | 0.807
28 | RRIRARPPRLPRPRPRPMSGPRP | 0.0632
29 | RRIRLRPPRLPRPRPRPVVCPRP | -0.0501
30 | RRIRHRPPRLPRPRPRPRGVPRP | 0.335
31 | RRIRLRPPRLPRPRPRPINEPRP | -0.0016
32 | RRIRVRPPRLPRPRPRPPTTPRP | 0.47
33 | RRIRCRPPRLPRPRPRPPHQPRP | 0.746
34 | RRIRPRPPRLPRPRPRPTEMPRP | 0.218
35 | RRIRTRPPRLPRPRPRPGQSPRP | -0.267
36 | RRIRRRPPRLPRPRPRPGPPPRP | 1.93
37 | RRIRHRPPRLPRPRPRPKEDPRP | 2.87
38 | RRIRLRPPRLPRPRPRPVSSPRP | 0.242
39 | RRIRLRPPRLPRPRPRPPETPRP | 0.0221
40 | RRIRDRPPRLPRPRPRPEKKPRP | -0.0317
41 | RRIRPRPPRLPRPRPRPLQWPRP | -0.037
42 | RRIRCRPPRLPRPRPRPYFKPRP | -0.931
43 | RRIRSRPPRLPRPRPRPTNIPRP | -0.434
44 | RRIRKRPPRLPRPRPRPFIYPRP | -0.144

Row | Sequence | shrunken log2 fold change
45 | RRIRARPPRLPRPRPRPPDYPRP | 0.406
46 | RRIRGRPPRLPRPRPRPATLPRP | 0.393
47 | RRIRQRPPRLPRPRPRPMSAPRP | -0.107
48 | RRIRTRPPRLPRPRPRPTYYPRP | -0.359
49 | RRIRARPPRLPRPRPRPMIKPRP | 0.148
50 | RRIRERPPRLPRPRPRPHDSPRP | -0.00973
51 | RRIRERPPRLPRPRPRPHELPRP | -0.0556
52 | RRIRNRPPRLPRPRPRPQFMPRP | -0.709
53 | RRIRQRPPRLPRPRPRPVIFPRP | -0.0797
54 | RRIRMRPPRLPRPRPRPRCQPRP | 0.00313
55 | RRIRFRPPRLPRPRPRPAHWPRP | 0.539
56 | RRIRCRPPRLPRPRPRPCAPPRP | -0.00137
57 | RRIRERPPRLPRPRPRPADCPRP | 0.0519
58 | RRIRDRPPRLPRPRPRPLGAPRP | 0.751
59 | RRIRKRPPRLPRPRPRPVTSPRP | 0.0678
60 | RRIRVRPPRLPRPRPRPDGQPRP | -0.0901
61 | RRIRHRPPRLPRPRPRPNAKPRP | -0.117
62 | RRIRGRPPRLPRPRPRPWQFPRP | 0.0819
63 | RRIRMRPPRLPRPRPRPLDMPRP | 0.167
64 | RRIRSRPPRLPRPRPRPLVNPRP | -0.138
65 | RRIRYRPPRLPRPRPRPDYLPRP | -1.57
66 | RRIRCRPPRLPRPRPRPSNMPRP | -0.604

Row | Sequence | shrunken log2 fold change
67 | RRIRFRPPRLPRPRPRPYKHPRP | -0.911
68 | RRIRQRPPRLPRPRPRPALPPRP | 0.397
69 | RRIRYRPPRLPRPRPRPGDWPRP | 0.337
70 | RRIRKRPPRLPRPRPRPSHMPRP | -0.0291
71 | RRIRWRPPRLPRPRPRPSILPRP | -0.341
72 | RRIRGRPPRLPRPRPRPRQVPRP | 0.585
73 | RRIRGRPPRLPRPRPRPGWRPRP | 1.09
74 | RRIRERPPRLPRPRPRPQEAPRP | -0.018
75 | RRIRLRPPRLPRPRPRPVFLPRP | -0.207
76 | RRIRARPPRLPRPRPRPQAEPRP | 0.892
77 | RRIRERPPRLPRPRPRPVDKPRP | -0.0448
78 | RRIRTRPPRLPRPRPRPLTEPRP | -0.23
79 | RRIRTRPPRLPRPRPRPPYCPRP | -0.112
80 | RRIRSRPPRLPRPRPRPAQKPRP | 0.33
81 | RRIRTRPPRLPRPRPRPAKIPRP | 0.0299
82 | RRIRERPPRLPRPRPRPHRSPRP | -0.103
83 | RRIRHRPPRLPRPRPRPFSDPRP | -0.149
84 | RRIRLRPPRLPRPRPRPAYYPRP | -0.253
85 | RRIRTRPPRLPRPRPRPNLYPRP | -0.255
86 | RRIRQRPPRLPRPRPRPRPCPRP | 0.409
87 | RRIRMRPPRLPRPRPRPRRVPRP | 1.3
88 | RRIRRRPPRLPRPRPRPDCMPRP | 0.32

Row | Sequence | shrunken log2 fold change
89 | RRIRYRPPRLPRPRPRPLCCPRP | -0.391
90 | RRIRTRPPRLPRPRPRPGGWPRP | 1.23
91 | RRIRLRPPRLPRPRPRPVQVPRP | -0.113
92 | RRIRCRPPRLPRPRPRPWVEPRP | -0.689
93 | RRIRPRPPRLPRPRPRPKNCPRP | -0.238
94 | RRIRPRPPRLPRPRPRPNRKPRP | -0.371
95 | RRIRERPPRLPRPRPRPKWQPRP | -0.0355
96 | RRIRYRPPRLPRPRPRPCGRPRP | -0.00865
97 | RRIRSRPPRLPRPRPRPWSQPRP | -0.00693
98 | RRIRGRPPRLPRPRPRPVYRPRP | 0.15
99 | RRIRDRPPRLPRPRPRPVLMPRP | -0.134
100 | RRIRNRPPRLPRPRPRPDGLPRP | 0.038
101 | RRIRQRPPRLPRPRPRPTPDPRP | 0.711
102 | RRIRARPPRLPRPRPRPANIPRP | -0.19
103 | RRIRHRPPRLPRPRPRPKSCPRP | -0.0344
104 | RRIRFRPPRLPRPRPRPEFCPRP | 0.139
105 | RRIRIRPPRLPRPRPRPNIKPRP | -1.05
106 | RRIRKRPPRLPRPRPRPYLYPRP | -0.404
107 | RRIRARPPRLPRPRPRPYQLPRP | -0.215
108 | RRIRRRPPRLPRPRPRPLNRPRP | -0.169
109 | RRIRMRPPRLPRPRPRPWCVPRP | 0.0904
